Test results published in US20170101454A1 (Novo Nordisk, published 2017).
Starred links: 1 amine or outer side, 2 acyl side, 3 side chain; linkers in the order of their positions; H or OH if unused. Non-standard residues stand in square brackets, D forms with d. Groups on a side chain read outwards from the residue. No end group written: not given here. *: point of attachment. C18 diacid = O=C(O)CCCCCCCCCCCCCCCCC(=O)*; γGlu = O=C(O)[C@H](CCC(=O)[*:2])N[*:1]; AEEA = NCCOCCOCC(=O)O; Aib = CC(C)(N)C(=O)O

Experiments:
[1] = molecular target: T1, human GLP-1 receptor (human, UniProt P43220 24-463); assay: cell-based or functional assay
[2] = molecular target: T2, human glucagon receptor (human, UniProt P47871 26-477); assay: cell-based or functional assay
T2 sequence (P47871 26-477): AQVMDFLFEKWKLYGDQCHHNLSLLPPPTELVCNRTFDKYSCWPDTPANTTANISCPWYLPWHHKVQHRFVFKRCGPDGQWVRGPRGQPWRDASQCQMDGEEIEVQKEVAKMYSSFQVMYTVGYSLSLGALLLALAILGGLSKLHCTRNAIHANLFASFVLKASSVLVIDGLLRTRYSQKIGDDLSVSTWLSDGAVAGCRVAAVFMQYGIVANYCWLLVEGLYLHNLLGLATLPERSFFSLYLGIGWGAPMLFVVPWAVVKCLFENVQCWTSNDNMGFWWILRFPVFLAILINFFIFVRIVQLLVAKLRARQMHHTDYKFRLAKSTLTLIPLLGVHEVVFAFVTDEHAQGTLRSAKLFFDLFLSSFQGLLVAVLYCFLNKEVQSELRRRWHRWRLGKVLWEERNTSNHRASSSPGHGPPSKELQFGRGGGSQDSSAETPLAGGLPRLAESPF

[3] = molecular target: T2, human glucagon receptor; assay: displacement of [125I]-glucagon from BHK membranes with human glucagon receptor, SPA, no serum albumin
[4] = molecular target: T1, human GLP-1 receptor; assay: displacement of [125I]-GLP-1-(7-36)NH2 from BHK membranes with human GLP-1R, SPA, no serum albumin

| Binder | GLP-1R EC50 (pM) [Assay (I)(a)], CRE luciferase reporter, BHK cells [1] [pM] | GlucagonR EC50 (pM), [Assay (I)(b)], CRE luciferase reporter, BHK cells [2] [pM] | IC50 [3] [nM] | IC50 [4] [nM] |
| --- | --- | --- | --- | --- |
| H[Aib]QGTFTSDLSKYLDARRARDFVQWLISK([γGlu-γGlu-AEEA-AEEA-γGlu-C18 diacid])-NH2 (N-terminus assumed; SMILES CC[C@H](C)[C@H](NC(=O)[C@H](CC(C)C)NC(=O)[C@H](Cc1c[nH]c2ccccc12)NC(=O)[C@H](CCC(N)=O)NC(=O)[C@@H](NC(=O)[C@H](Cc1ccccc1)NC(=O)[C@H](CC(=O)O)NC(=O)[C@H](CCCNC(=N)N)NC(=O)[C@H](C)NC(=O)[C@H](CCCNC(=N)N)NC(=O)[C@H](CCCNC(=N)N)NC(=O)[C@H](C)NC(=O)[C@H](CC(=O)O)NC(=O)[C@H](CC(C)C)NC(=O)[C@H](Cc1ccc(O)cc1)NC(=O)[C@H](CCCCN)NC(=O)[C@H](CO)NC(=O)[C@H](CC(C)C)NC(=O)[C@H](CC(=O)O)NC(=O)[C@H](CO)NC(=O)[C@@H](NC(=O)[C@H](Cc1ccccc1)NC(=O)[C@@H](NC(=O)CNC(=O)[C@H](CCC(N)=O)NC(=O)C(C)(C)NC(=O)[C@@H](N)Cc1c[nH]cn1)[C@@H](C)O)[C@@H](C)O)C(C)C)C(=O)N[C@@H](CO)C(=O)N[C@@H](CCCCNC(=O)CC[C@H](NC(=O)CC[C@H](NC(=O)COCCOCCNC(=O)COCCOCCNC(=O)CC[C@H](NC(=O)CCCCCCCCCCCCCCCCC(=O)O)C(=O)O)C(=O)O)C(=O)O)C(N)=O, also called Chem. 27; Chem 27) | 3 | 66 | 19.1 | 0.2 |
| H[Aib]QGTFTSDLSKYLDLRRARDFVAWLINK([γGlu-γGlu-AEEA-AEEA-γGlu-C18 diacid])-NH2 (N-terminus assumed; SMILES CC[C@H](C)[C@H](NC(=O)[C@H](CC(C)C)NC(=O)[C@H](Cc1c[nH]c2ccccc12)NC(=O)[C@H](C)NC(=O)[C@@H](NC(=O)[C@H](Cc1ccccc1)NC(=O)[C@H](CC(=O)O)NC(=O)[C@H](CCCNC(=N)N)NC(=O)[C@H](C)NC(=O)[C@H](CCCNC(=N)N)NC(=O)[C@H](CCCNC(=N)N)NC(=O)[C@H](CC(C)C)NC(=O)[C@H](CC(=O)O)NC(=O)[C@H](CC(C)C)NC(=O)[C@H](Cc1ccc(O)cc1)NC(=O)[C@H](CCCCN)NC(=O)[C@H](CO)NC(=O)[C@H](CC(C)C)NC(=O)[C@H](CC(=O)O)NC(=O)[C@H](CO)NC(=O)[C@@H](NC(=O)[C@H](Cc1ccccc1)NC(=O)[C@@H](NC(=O)CNC(=O)[C@H](CCC(N)=O)NC(=O)C(C)(C)NC(=O)[C@@H](N)Cc1c[nH]cn1)[C@@H](C)O)[C@@H](C)O)C(C)C)C(=O)N[C@@H](CC(N)=O)C(=O)N[C@@H](CCCCNC(=O)CC[C@H](NC(=O)CC[C@H](NC(=O)COCCOCCNC(=O)COCCOCCNC(=O)CC[C@H](NC(=O)CCCCCCCCCCCCCCCCC(=O)O)C(=O)O)C(=O)O)C(=O)O)C(N)=O) | 3 | 55 | 14 | 0.4 |

Binders with a lower IC50 [3], results first:

| GLP-1R EC50 (pM) [Assay (I)(a)], CRE luciferase reporter, BHK cells [1] [pM] | GlucagonR EC50 (pM), [Assay (I)(b)], CRE luciferase reporter, BHK cells [2] [pM] | IC50 [3] [nM] | IC50 [4] [nM] | Binder |
| --- | --- | --- | --- | --- |
| 3 | 31 | 8.7 | 0.1 | H[Aib]QGTFTSDLSKYLDARRAREFVQWLINK([γGlu-γGlu-AEEA-AEEA-γGlu-C18 diacid])-NH2 (N-terminus assumed; SMILES CC[C@H](C)[C@H](NC(=O)[C@H](CC(C)C)NC(=O)[C@H](Cc1c[nH]c2ccccc12)NC(=O)[C@H](CCC(N)=O)NC(=O)[C@@H](NC(=O)[C@H](Cc1ccccc1)NC(=O)[C@H](CCC(=O)O)NC(=O)[C@H](CCCNC(=N)N)NC(=O)[C@H](C)NC(=O)[C@H](CCCNC(=N)N)NC(=O)[C@H](CCCNC(=N)N)NC(=O)[C@H](C)NC(=O)[C@H](CC(=O)O)NC(=O)[C@H](CC(C)C)NC(=O)[C@H](Cc1ccc(O)cc1)NC(=O)[C@H](CCCCN)NC(=O)[C@H](CO)NC(=O)[C@H](CC(C)C)NC(=O)[C@H](CC(=O)O)NC(=O)[C@H](CO)NC(=O)[C@@H](NC(=O)[C@H](Cc1ccccc1)NC(=O)[C@@H](NC(=O)CNC(=O)[C@H](CCC(N)=O)NC(=O)C(C)(C)NC(=O)[C@@H](N)Cc1c[nH]cn1)[C@@H](C)O)[C@@H](C)O)C(C)C)C(=O)N[C@@H](CC(N)=O)C(=O)N[C@@H](CCCCNC(=O)CC[C@H](NC(=O)CC[C@H](NC(=O)COCCOCCNC(=O)COCCOCCNC(=O)CC[C@H](NC(=O)CCCCCCCCCCCCCCCCC(=O)O)C(=O)O)C(=O)O)C(=O)O)C(N)=O, also called Chem. 21; Chem 21) |
| 3 | 36 | 8.6 | 0.2 | H[Aib]QGTFTSDLSKYLDARRAREFVQWLISK([γGlu-γGlu-AEEA-AEEA-γGlu-C18 diacid])-NH2 (N-terminus assumed; SMILES CC[C@H](C)[C@H](NC(=O)[C@H](CC(C)C)NC(=O)[C@H](Cc1c[nH]c2ccccc12)NC(=O)[C@H](CCC(N)=O)NC(=O)[C@@H](NC(=O)[C@H](Cc1ccccc1)NC(=O)[C@H](CCC(=O)O)NC(=O)[C@H](CCCNC(=N)N)NC(=O)[C@H](C)NC(=O)[C@H](CCCNC(=N)N)NC(=O)[C@H](CCCNC(=N)N)NC(=O)[C@H](C)NC(=O)[C@H](CC(=O)O)NC(=O)[C@H](CC(C)C)NC(=O)[C@H](Cc1ccc(O)cc1)NC(=O)[C@H](CCCCN)NC(=O)[C@H](CO)NC(=O)[C@H](CC(C)C)NC(=O)[C@H](CC(=O)O)NC(=O)[C@H](CO)NC(=O)[C@@H](NC(=O)[C@H](Cc1ccccc1)NC(=O)[C@@H](NC(=O)CNC(=O)[C@H](CCC(N)=O)NC(=O)C(C)(C)NC(=O)[C@@H](N)Cc1c[nH]cn1)[C@@H](C)O)[C@@H](C)O)C(C)C)C(=O)N[C@@H](CO)C(=O)N[C@@H](CCCCNC(=O)CC[C@H](NC(=O)CC[C@H](NC(=O)COCCOCCNC(=O)COCCOCCNC(=O)CC[C@H](NC(=O)CCCCCCCCCCCCCCCCC(=O)O)C(=O)O)C(=O)O)C(=O)O)C(N)=O, also called Chem. 28; Chem 28) |
